Kd, koff and kon data for three substances are collected here from patent US20240092876A1 (priority 2020, published 2024).

As a reminder, the Kd is a measure of binding affinity in units of concentration. Read a high Kd as lower affinity. Usually koff stands for the first-order rate constant of dissociation. Low readings indicate a long-lived complex, high ones a short-lived complex. The term kon denotes a measure of how fast the partners come together. Higher therefore signals faster complex formation.

Take FNI9 (antibody): the dissociation constant (Kd) with N1 was 16.4 pM; in the test with N9, under 1 pM.
As for 1G01 (antibody), in the test with N1, the Kd came to 868 pM, the koff is 4.79e-05 s⁻¹ and the on-rate (kon) was found to be 55100 M⁻¹ s⁻¹. Moreover, in the test with N9, the equilibrium dissociation constant (Kd) is under 1 pM, the koff is under 1e-07 s⁻¹ and the association rate constant (kon) is 106000 M⁻¹ s⁻¹.
In the test with N1, FNI3 (antibody) displayed a Kd of under 1 pM, a koff of under 1e-07 s⁻¹ and an on-rate (kon) of 39500 M⁻¹ s⁻¹. In the test with N9, the dissociation constant (Kd) was determined as 2.86 pM, the dissociation rate constant (koff) is 9.45e-07 s⁻¹ and the on-rate constant (kon) turned out to be 330000 M⁻¹ s⁻¹.
